# Results as given in PMC11636682 (Science Advances, 2024).
# No end group written: not given here. *: point of attachment. Farnesyl = CC(C)=CCC/C(C)=C/CC/C(C)=C/C*
# B1: KRAS4a(167–186)HVR-FMe peptide (peptide, UniProt P01116-1 167-186, looked up)
# peptide: RLKKISKEEKTPGCVKIKKC(Farnesyl)-OMe
# notes: KRAS splice variant KRAS4a, hypervariable region, residues 167 to 186 (20-mer ending at the prenylated cysteine); also called prenylated 20-residue KRAS4a HVR peptide; KRAS4a-HVR peptide; source: synthetic peptide, bought: AnaSpec Peptides Inc
# Biological target: T1, phosphodiesterase-δ (PDEδ) (UniProt O43924 1-150)
# T1 construct: also called His6-MBP-tev-PDEδ; source: E. coli, purified
# Assay: ITC; 1 mM KRAS4a(167–186)HVR-FMe peptide in the syringe, 200 μM PDEδ in the cell; 25°C; 20 mM Hepes pH 7.3, 150 mM NaCl, 5 mM MgCl2, 1 mM TCEP; single binding site model
# Settings: both partners purified
# T1 sequence (O43924 whole entry, stated change not applied): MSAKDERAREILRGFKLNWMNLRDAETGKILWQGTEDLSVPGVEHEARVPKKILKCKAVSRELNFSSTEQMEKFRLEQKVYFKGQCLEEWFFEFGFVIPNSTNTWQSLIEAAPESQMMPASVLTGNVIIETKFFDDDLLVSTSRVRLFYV
binder,measurement,value
B1,Kd,27 µM
